Laboratory results: paper PMC11054746, “GRPR-Antagonists Carrying DOTAGA-Chelator via Positively Charged Linkers: Perspectives for Prostate Cancer Theranostics” (Pharmaceutics, 2024)
Starred links: 1 amine or outer side, 2 acyl side, 3 side chain; linkers in the order of their positions; H or OH if unused. Non-standard residues stand in square brackets, D forms with d. Residues, ends and D or L forms follow the SMILES beside them. *: point of attachment. DOTAGA = O=C(O)CN1CCN(CC(=O)O)CCN(C(CCC(=O)*)C(=O)O)CCN(CC(=O)O)CC1; Sta = CC(C)C[C@H](N)[C@@H](O)CC(=O)O; X1 = O=C(CN1CCC(N[*:1])CC1)[*:2]; Sar = CNCC(=O)O

Tests used:
[1] = tested on: PC-3 xenografts; assay: in vivo; parameters: species or system BALB/C nu/nu mice; details: mouse
Procedure: (§1) All in vivo studies were performed following European guidelines on laboratory animal protection. The in vivo stability experiments were carried out in healthy male Swiss albino mice; the study protocol was approved by the Department of Agriculture and Veterinary Service of the Prefecture of Athens (protocol number #440448, 01-06-2021). The biodistribution, in vivo targeting specificity assay, and SPECT/CT imaging experiments were carried out on BALB/C nu/nu mice. The Ethics Committee for Animal Research in Uppsala (Sweden) approved the latter in vivo animal studies (permit number 00473/21). The BALB/C nu/nu mice were implanted with GRPR-positive prostate cancer xenografts by subcutaneous injection on the right hind leg of PC-3 cells suspended in PBS (7 × 10^6 cells/mouse) four weeks before the biodistribution studies.
(§2) The mice were iv injected with 40 pmol peptide (30 kBq in a total volume of 100 μL 1% bovine serum albumin (BSA) in PBS). […] At the indicated time points, mice were euthanized under anesthesia. The organs of interest were collected, weighed, and the sample radioactivity content was measured on the gamma counter. The percentage of injected activity per gram (%IA/g) of collected tumors, organs and tissues, the %IA for the remaining gastrointestinal tract and carcass, as well as the tumor-to-organ ratios (T/O) were calculated.

[2] = in vivo; parameters: species or system BALB/C nu/nu mice; details: BALB/C nu/nu, mouse, iv, total radioactivity; for tissue to tissue ratio at 4 h / tissue to tissue ratio at 24 h: Tumor-to-organ ratio
Procedure: as §1, §2

[3] = tested on: PC-3 cells; assay: In vitro binding specificity assay (uptake with and without GRPR blocking by NOTA-PEG2-RM26); type: cell-based, human; details: 1 nM radiotracer, 1 h, unblocked
Procedure: The in vitro binding assay was performed on PC-3 cells seeded in 6-well plates (1.15 × 10^6 cells/well). Media containing a GRPR-blocking agent (NOTA-PEG2-RM26, 1 μM) were added to half of the wells. The plates were incubated at room temperature for 10 min and the medium containing the radiotracer under investigation was added to all wells in a final concentration of 1 nM. The plates were incubated for 1 h and then treated with 0.25% trypsin-EDTA to detach cells. The cells were collected and their activity was measured using the gamma counter.

[4] = tested on: PC-3 cells; assay: Cellular internalization; type: cell-based, human; details: 1 nM, acid wash, mean of 3 dishes ± sd, normalized to maximum cell association at 24 h
Procedure: For the cellular internalization assay, PC-3 cells (1 × 10^6 cells/dish) were used. The cells were incubated with 1 mL (1 nM) of solution containing the radiolabeled peptide under evaluation. At the 4 h and 24 h time points, the cells were treated with an acid wash (0.2 M glycine buffer with 0.15 M NaCl and 4 M urea, pH 2) for 5 min on ice to remove the membrane-bound peptide. After collection of acid fractions, the cells were treated with 1 M NaOH for at least 30 min and the cell debris were scraped and collected. The activity content in samples was measured using the gamma counter.

[5] = target: T1, human GRPR (Homo sapiens, UniProt P30550); assay: Affinity measurements in real time (LigandTracer) on PC-3 cells; type: binding; details: room temperature, 1:2 fitting interaction model
T1 construct: host or cells: PC-3 human prostate adenocarcinoma cells
T1 sequence (P30550 whole entry): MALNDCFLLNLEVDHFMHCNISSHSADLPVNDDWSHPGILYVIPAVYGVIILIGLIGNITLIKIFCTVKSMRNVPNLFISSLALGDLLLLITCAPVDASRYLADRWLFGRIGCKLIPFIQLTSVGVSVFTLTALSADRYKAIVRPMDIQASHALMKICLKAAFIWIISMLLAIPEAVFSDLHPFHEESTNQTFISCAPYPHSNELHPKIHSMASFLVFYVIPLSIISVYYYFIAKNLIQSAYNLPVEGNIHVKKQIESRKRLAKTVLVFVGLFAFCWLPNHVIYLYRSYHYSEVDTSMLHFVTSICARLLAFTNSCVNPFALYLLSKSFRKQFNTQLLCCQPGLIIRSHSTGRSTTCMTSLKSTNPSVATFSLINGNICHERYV
Procedure: The association curves were recorded at 1 nM and 3 nM of the radiolabeled peptides for 300 min. After reaching the plateau, the medium containing the radioligand was replaced with fresh medium and the dissociation curve was measured for about 16 h. The obtained sensorgrams were analyzed using TracerDrawer (Ridgeview Instruments AB, Uppsala, Sweden) and the dissociation constants (KD) were calculated.

[6] = Radiochemical stability: indium release in PBS or with EDTA excess, by iTLC; type: physicochemical; details: room temperature, 0.2 M citric acid, mean ± sd, n = 3
Procedure: The radiochemical yield was analyzed with instant thin layer chromatography (iTLC) strips (Agilent Technologies, Santa Clara, CA, USA), using 0.2 M citric acid buffer as a mobile phase (Rf = 0 for the radiolabeled peptide and Rf = 1 for free indium). The iTLC results were analyzed using Cyclone® Plus Phosphorimager (PerkinElmer, Hägersten, Sweden). The radiochemical stability was determined by incubating the radiolabeled compounds with phosphate-buffered saline (PBS) or a 1000-fold molar excess of ethylenediaminetetraacetic acid (EDTA) for 1 h at room temperature. The percentage of indium release was assessed by iTLC using 0.2 M citric acid as mobile phase. Stability tests were performed in triplicate for each compound.

[7] = 40 pmol, GI (gastrointestinal tract, GIT) uptake

With `CC(C)C[C@H](NC(=O)C[C@H](O)[C@H](CC(C)C)NC(=O)[C@H](Cc1c[nH]cn1)NC(=O)CN(C)C(=O)[C@@H](NC(=O)[C@H](C)NC(=O)[C@H](Cc1c[nH]c2ccccc12)NC(=O)[C@H](CCC(N)=O)NC(=O)[C@@H](Cc1ccccc1)NC(=O)CN1CCC(NC(=O)[C@H](CCCNC(=N)N)NC(=O)[C@H](CCCNC(=N)N)NC(=O)CCC(C(=O)O)N2CCN(CC(=O)O)CCN(CC(=O)O)CCN(CC(=O)O)CC2)CC1)C(C)C)C(N)=O` (stereo partly drawn) [[^111In]In-AU-RM26-M4, metal not drawn] ({DOTAGA}-RR[X1][dF]QWAV[Sar]H[Sta]L-NH2) the Blood uptake ([1]; BALB/C nu/nu, iv, 40 pmol, 4 h) was 0.125 ± 0.0004 %IA/g, the “kidney uptake at 24 h pi retained as % of the 4 h renal value” [1] was less than 38% and the “pancreas uptake at 24 h pi as % of the initial 4 h uptake” value [1] was “less than 10%”. For the same compound, the tissue uptake at 4 h ([2]; 40 pmol, Blood uptake) was 0.122 ± 0.0013 %ID/g, the tissue uptake at 24 h ([2]; 40 pmol, Blood uptake) was 0.02 ± 0.01 %ID/g and the tissue uptake at 4 h ([2]; 40 pmol, Bone uptake) was 0.13 ± 0.04 %ID/g. For the same compound, the tissue uptake at 24 h ([2]; 40 pmol, Bone uptake) was 0.09 ± 0.02 %ID/g, the tissue uptake dose at 4 h ([2]; 40 pmol, Carcass (whole body) uptake) was 3 ± 1.5 %ID and the tissue uptake dose at 24 h ([2]; 40 pmol, Carcass uptake) was 0.8 ± 0.2 %ID. The tissue uptake dose at 4 h [2, 7] was 1.4 ± 0.3 %ID, the tissue uptake dose at 24 h [2, 7] was 0.15 ± 0.03 %ID and the tissue uptake at 4 h ([2]; 40 pmol, Kidneys uptake) was 7 ± 1 %ID/g. For the same compound, the tissue uptake at 24 h ([2]; 40 pmol, Kidneys uptake) was 2.7 ± 0.1 %ID/g, the tissue uptake at 4 h ([2]; 40 pmol, Liver uptake) was 0.6 ± 0.11 %ID/g and the tissue uptake at 24 h ([2]; 40 pmol, Liver uptake) was 0.31 ± 0.07 %ID/g. For the same compound, the tissue uptake at 4 h ([2]; 40 pmol, Lungs uptake) was 0.2 ± 0.08 %ID/g, the tissue uptake at 24 h ([2]; 40 pmol, Lungs uptake) was 0.06 ± 0.02 %ID/g and the tissue uptake at 4 h ([2]; 40 pmol, Muscle uptake) was 0.06 ± 0.02 %ID/g. For the same compound, the tissue uptake at 24 h ([2]; 40 pmol, Muscle uptake) was 0.02 ± 0.01 %ID/g, the tissue uptake at 4 h ([2]; 40 pmol, Pancreas uptake) was 3.4 ± 0.6 %ID/g and the tissue uptake at 24 h ([2]; 40 pmol, Pancreas uptake) was 0.36 ± 0.08 %ID/g. It also gave a tissue uptake at 4 h ([2]; 40 pmol, Small Int uptake) of 1.1 ± 0.3 %ID/g, a tissue uptake at 24 h ([2]; 40 pmol, Small Int uptake) of 0.11 ± 0.03 %ID/g and a tissue uptake at 4 h ([2]; 40 pmol, Spleen uptake) of 0.23 ± 0.07 %ID/g. For the same compound, the tissue uptake at 24 h ([2]; 40 pmol, Spleen uptake) was 0.14 ± 0.04 %ID/g, the tissue uptake at 4 h ([2]; 40 pmol, Tumor uptake) was 15 ± 5 %ID/g and the tissue uptake at 24 h ([2]; 40 pmol, Tumor uptake) was 7 ± 3 %ID/g. The tissue to tissue ratio at 4 h ([2]; 40 pmol, Blood) was 123 ± 43, the tissue to tissue ratio at 24 h ([2]; 40 pmol, Blood) was 369 ± 228 and the tissue to tissue ratio at 4 h ([2]; 40 pmol, Bone) was 119 ± 40. It also gave a tissue to tissue ratio at 24 h ([2]; 40 pmol, Bone) of 79 ± 25, a tissue to tissue ratio at 4 h ([2]; 40 pmol, Kidneys) of 2.3 ± 0.9 and a tissue to tissue ratio at 24 h ([2]; 40 pmol, Kidneys) of 2.6 ± 0.9. It also gave a tissue to tissue ratio at 4 h ([2]; 40 pmol, Liver) of 25 ± 11, a tissue to tissue ratio at 24 h ([2]; 40 pmol, Liver) of 23 ± 9 and a tissue to tissue ratio at 4 h ([2]; 40 pmol, Lungs) of 90 ± 59. The tissue to tissue ratio at 24 h ([2]; 40 pmol, Lungs) was 120 ± 61, the tissue to tissue ratio at 4 h ([2]; 40 pmol, Muscle) was 307 ± 168 and the tissue to tissue ratio at 24 h ([2]; 40 pmol, Muscle) was 347 ± 176. It also gave a tissue to tissue ratio at 4 h ([2]; 40 pmol, Pancreas) of 4 ± 1, a tissue to tissue ratio at 24 h ([2]; 40 pmol, Pancreas) of 20 ± 5 and a tissue to tissue ratio at 4 h ([2]; 40 pmol, Small Int) of 15 ± 7. It also gave a tissue to tissue ratio at 24 h ([2]; 40 pmol, Small Int) of 67 ± 35, a tissue to tissue ratio at 4 h ([2]; 40 pmol, Spleen) of 71 ± 37 and a tissue to tissue ratio at 24 h ([2]; 40 pmol, Spleen) of 54 ± 30. The tissue uptake dose at 4 h ([2]; Carcass uptake, Block) was 1.6 ± 0.3 %ID, the tissue uptake dose at 4 h ([2]; GI (gastrointestinal tract, GIT) uptake, Block) was 0.5 ± 0.2 %ID and the “cell uptake, fold higher than the other analogs of the series” value [3] was 2 fold. The “internalized fraction at 24 h” value [4] was 33 ± 7%, the ka1 ([5]; association at 1 and 3 nM) was 344000 M⁻¹ s⁻¹ and the ka2 ([5]; association at 1 and 3 nM) was 346000 M⁻¹ s⁻¹. The kd1 ([5]; dissociation about 16 h) was 2e-06 s⁻¹, the kd2 ([5]; dissociation about 16 h) was 2.08e-06 s⁻¹ and the “released [111In]In3+, ×1000 EDTA (1 h)” value ([6]; 1000-fold molar excess of EDTA) was 3.2 ± 0.1% (3). For the same compound, the “released [111In]In3+, PBS” value ([6]; incubation in PBS, 1 h) was 1.9 ± 0.1% (3).
